From publication PMC6606567, “Molecular tuning of farnesoid X receptor partial agonism” (Nature Communications, 2019) come the findings set out here.

The target of series [1] is farnesoid X receptor ligand binding domain (FXR-LBD; isoform 4; amino acids 244-472) (human). In words: NMR titration; HSQC of the quaternary mixture of FXR-LBD, antagonist guggulsterone, labeled co-activator (NCoA) and co-repressor (NCoR) peptides; protein:peptide:ligand 50:50:250 µM, 298 K.
Series [2] has the same target. The series is described as follows: NMR titration; 1H/13C-HSQC of Leu-labeled NCoR and NCoA peptides (50 µM) with FXR-LBD (50 µM) and ivermectin (250 µM); 298 K, 50 mM Tris pH 8.3, 500 mM NaCl, 2 mM TCEP; populations from signal intensities.
The target is the same in series [3]. In words: NMR titration; 1H/13C-HSQC of Leu-labeled NCoR and NCoA peptides (50 µM) with FXR-LBD (50 µM) and CDCA (250 µM); 298 K, 50 mM Tris pH 8.3, 500 mM NaCl, 2 mM TCEP; populations from signal intensities.
Series [4] has the same target. In words: NMR titration; 1H/13C-HSQC of Leu-labeled NCoR and NCoA peptides (50 µM) with FXR-LBD (50 µM) and GW4064 (250 µM); 298 K, 50 mM Tris pH 8.3, 500 mM NaCl, 2 mM TCEP; populations from signal intensities.
The target is the same in series [5]. The series is described as follows: NMR titration; 1H/13C-HSQC of Leu-labeled NCoR and NCoA peptides (50 µM) with FXR-LBD (50 µM) and fexaramine (250 µM); 298 K, 50 mM Tris pH 8.3, 500 mM NaCl, 2 mM TCEP; populations from signal intensities.
For series [6] the target is unchanged. In words: NMR titration; 1H/13C-HSQC of Leu-labeled NCoR and NCoA peptides (50 µM) with FXR-LBD (50 µM) and partial agonist 1 (250 µM); 298 K, 50 mM Tris pH 8.3, 500 mM NaCl, 2 mM TCEP; populations from signal intensities.
Series [7] concerns the molecule itself. The series is described as follows: crystal structure; FXR244-472 (75 µM) incubated with 150 µM partial agonist 1 (DM175), concentrated to 375 µM, then 750 µM NCoA-2 740-752 peptide; hanging drop, 4 °C, 300 mM MgCl2, 100 mM Bis-Tris pH 7, 15-20% PEG 3350, micro seeding.

As to “Nuclear receptor co-activator 2 peptide (NCoA-2 740-752)”, the free co-repressor/free co-activator ratio (part of free co-activator) in series [1] is 85; in series [2], 75; in series [3] it was 13; in series [4], 14; in series [5] it was 23; in series [6], 70.

In the case of “nuclear receptor co-repressor 1 peptide (NCoR-1, residues 2256-2278)”, the free co-repressor/free co-activator ratio (part of free co-repressor) in series [1] came out at 15; in series [2], 25; in series [3], 87; in series [4], 86; in series [5], 77; in series [6], 30.

B1: farnesoid X receptor ligand binding domain (FXR-LBD; isoform 4; amino acids 244-472) (domain or fragment, human)
chain: ELTPDQQTLLHFIMDSYNKQRMPQEITNKILKEEFSAEENFLILTEMATNHVQVLVEFTKKLPGFQTLDHEDQIALLKGSAVEAMFLRSAEIFNKKLPSGHSDLLEERIRNSGISDEYITPMFSFYKSIGELKMTQEEYALLTAIVILSPDRQYIKDREAVEKLQEPLLDVLQKLCKIHQPENPQHFACLLGRLTELRTFNHHHAEMLMSWRVNDHKFTPLLCEIWDVQ
notes: numbers count on: isoform 4; also called FXR244-472; NR1H4; source: E. coli BL21(DE3) gold, purified (NiNTA, Tev cleavage, Superdex 200); not shown: His6, N-terminal, cleaved
Take B1: the binding result in series [7] is on record as “binds”.
